Test: yeast display, Sf9 membrane polyspecificity reagent, FACS + sequencing; frameworks hold sequencing errors
In short: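 In a synthetic yeast display library (Saccharomyces cerevisiae BJ5465), nanobody expression was induced with galactose for 36–48 hours. FACS gates were set low and high (top ~1%) using anti-HA fluorescence for expression and streptavidin fluorescence for binding of the Sf9 membrane reagent. Each polyreactivity label is drawn from the gate of origin.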

Row | Sequence | polyreactivity (PSR sort gate)
1 | QVQLVESGGGLVQAGGSLRLSCAASGRIFYEYAMGWYRQAPGKDRELVAAISNSGGSTYYAHSVKGRFTISRDNAKNTVYLQMNSLQPEDTAVYYCAATVRLPNGVRYGYWGQGTQVTGSS | high polyreactivity
2 | QVQLVESGGGLVQAGGSLRLSCAASGRTFLRYAMGWYRQAPGKERELVAAISGSGGSTYYADSVKGRFTISRDNAKNTVYLQMNSLKPEDTAVYYCATRFWVSFKAREYWGQGTQVTVSS | high polyreactivity
3 | QVQLVESGGGLVQAGGSLRLSCAASGRILEVYAMGWYRQAPGKERELVAAIRWSDGNTYYADSVKGRFTISRDNAKNTVYLQMNSLKPEDTAVYYCAARTPGGYDWGQGTQVTVSS | high polyreactivity
4 | QVQLVESGGGLVQAGGSLRLSCDASGSIFIANAMGWYRQAPGKEREFVAAINWSRGSTYYADSVKGRFTISRDNAKNTVYLQMNSLKPEDTAVYYCNAASLKFTSPVRFGYWGQGTQVTVSS | high polyreactivity
5 | QVQLQESGGGLVQAGGSLRLSCAASGNIYDADIMGWYRQAPGKERELVTSITDGGSTNYADSVKGRFTISRDNAKNTVYLQMNSLKPEDTAVYYSAAIAYPDIPTSFDYNSDYSYWGQGTQVTVSS | low polyreactivity
6 | QVQLVESGGGLVQAGGSLRLSCAASGRIFKRYAMGWYRQAPGKERELVAAIRTSDGITYYADSVKGRFTISRDNAKNTVYLQMNSLKPEDTAVYYCNADLSKAERWGQGTQVTVSS | low polyreactivity
7 | QVQLVESGGGLVQAGGSLRLSCAASGFTFSKYTMGWYRQAPGKERELVAAITSGGSTNYADSVKGRFTISRDNAKNTVYLQMNSLKPEDTAVYYCNKRHIAHNAVGAGLELDYWGQGTQVTVSS | low polyreactivity
8 | QVQLVESGGGLVQAGGSLRLSCAASGRIFSVNAMGWYRQAPGTEREFVAAISWSGSSTYYADSVKGRFTSSRDNAKITVYLQMNSLKPEDTAVYYCNADIDFGTREVYYWGQGTQVTVSS | low polyreactivity
9 | QVQLVESGGGLVKAGGSLRLSCAASGRIFKYNAMGWYRQAPGKERELVAVITSGGSTYYADSVKGRFTISRDNAKNTVYLQMNSLKPEDTAVYYWGQGTQVTVSS | low polyreactivity
10 | QVQLVESGGGLVQAGGSLRLSCAASGRIFASNAMGWYRQAPGKERELVAAIDQGGGSTYYADSVKGRFTISRDNAKNTVYLQMNSLKPEDTAVYDCAADYISAYPRLYNYWGQGTQVTVSS | low polyreactivity
11 | QVQLVESGGGLVQAGGSLRLSCAASGRTLGRYAMGWYRQAPGKERELVAAINVGGGTTHYADSVKGRFTISRDNAKNTVYLQMNSLKPEDTAVYYCAAYRYTYGDRHAYDYWGQGTQVTVSS | low polyreactivity
12 | QVQLAESGGGLVQAGGSLRLSCAPSGSTFEINAMGWYRQAPGKETELVAAISRGGSTNYADSVKGRFSISRDNAKNTVYLQMNSLKPEDSAVYDCARDPRFRYYRVSYANDQEFEYSGQGTQVTVSS | high polyreactivity
13 | QVQLVESGGGLVQAGGSLRLSCAASGSTFGTYAMGWYRQAPGKERELVAAITRSGGSTYYADSVKGRFTISRDNAKNTVYLQMNSLKPEDTAVYYCAAVSKGYYYWGQGTQVTVSS | high polyreactivity
14 | QVQHVESGGGLGQAGGSLRLSCAASGGTFQTNAKGCYRQAPGKERELVAGIRWRGGSTYYADSVKGRFTISRDNAKNTVYLQMKSLKPEDTAVYYCAAYYWQGTYDSRRTGWRLMNYWGQGTQVTVSS | high polyreactivity
15 | QVQLVESGGGLVQAGGSLRLSCAASGSTSYNYVMGWYRQAPGKERELVAAISFTDGTTYYADSVKGRFTISRDNAKNTVYLQMNSLKPEDTAVYYCAAGYTGYTYTEMDYWGQVTQVTVSS | low polyreactivity
16 | QVQLQESGRRPGSAGVSPRMSCAASGNIFWVAVMCRYRQAPGKERELVASIGFGCTTYYADSVKCRFTISRDNAKITVYLQMLSLKPFDTAVYYCAAPHYDWGELDYWGQGTQVPVSS | low polyreactivity
17 | QVQLVESGGGLVQAGGSLRLSCAASGYTFSYYAMGWYRQAPGKERELVAAISVRGDSTYYADSVKGRFTISRDYAKNTVYLLMNSLKPEDTAVYYCAARVVRSSYVRYHYWGQGTQVTVSS | high polyreactivity
18 | QVQLLDSGGGLVKAGGILRLSCAASGRTFGRYAMGCYRQSPGKERELVATISSRGGNAYYAESVKGRFTISRDNAKNTVYFQMNSLKPEYTGVYYCEAQTYKCYDWRQGTQVTVSS | high polyreactivity
19 | QVQLLESGGGLVQAGGSLRLSCAASGRIFVRNAMGWYRQAPGKERELVAAITSSGGRTYYADSVKGRFTISRDNAKNTVYLQMNSLKPEDTAVYYCNADDFGYASYEYWGQGSQVTVSS | low polyreactivity
20 | QVQLVESGGGLVQAGGSLRLSCAASGFIFTSNAMGWYRQAPGKERELVAAITKSGGSTYYADSVKGRFTISRDNAKNTVYLQMNSLKPEDTAVYYCATRGVRRYYKTMNYWGQGTQVTVSS | high polyreactivity
21 | QVQHVESGGGLVQAGGSLRLSCAASGFTFRYNAMGWYRQAPGKKGSWVAAISRTGGSTYYADSVKGRFTISRDNAKNTVYLQMNSLKPEDTAVYYCARAPEGTGGKYGYWGQGTQVTVSS | high polyreactivity

Row | Sequence | polyreactivity (PSR sort gate)
22 | QVQLVESGGGLVQAGGSLRLSCAASGRTFYKNAMGWYRQATGKERELVARISRGGSTNYADSVKGRFTISRDNAKNTVYLQMNSLKPEDTAVYYCAKEYGTHGKTYDYWGQGTQVTVSS | high polyreactivity
23 | QVQLVESGGGLVQAGGSLRLSCAASGSIFSNYAMGWYRQAPGKERELVAAITWSGDDTYYADSVKGRFTISRDNAKTTVYLQMNSLKPVDTAVYYCAAEYHGYRYNYYPYSHYFIYESWGQGTQVTVSS | high polyreactivity
24 | QVQLVESGGGLVQAGGSLRLSCAASGSIFYDYTMGWYRQAPGKERELVAAINSGGSTNYADSVKGRFTISRDNAKNTVYLQMNSLKPEDTAVYYCAAVRYNSRVSTTPSEMYYLGQGTQVTVSS | low polyreactivity
25 | QVQLVESGGGLVQAGGSLRLSCAASGSIFSQNAMGWYRQAPGKEREFVAAIRWSAGSTYYADSVKGRFTISRDNAKNTVYLQMNSLKPEDTAVYYCNAALNVSGHYPNDYWGQGTQVTVSS | low polyreactivity
26 | QVQLVESGGGLVQEGGSLSLSCAASGITLSLYAMGRYRQAPGKERELVAAISRSGGSTYYAYSVKGRFTISRDNAKNTVYLQMNSLKPVDTAFFYCATSWTPNYFVTSDYWGQGTQVTVSS | high polyreactivity
27 | QVQLVESGGGLVQAGGSLRLSCAASGFIQPYNTMGWYRQAPGKEREFVAAINYSGGRTYYADSVKGRFTISRDNAKNTVYLQMNRLKPEDTAVYYCAAARYPYRYKYNYWGQGTQVTVSS | high polyreactivity
28 | QVQLVESGAGLLQAGGSLRISCAASGLTFKIIAMGWYRQAPGKERELVAAISSGTSTNYADSVKGRFTISRDNAKITVYLQMNSLKPEDTAVYYCAARGFWGVAYRYYYWGQGTQVTLSS | high polyreactivity
29 | QVQLVETGGGLVQAGGSLRLSCAASRSIFARNAMGWYRQAPGKERELVAAISWSGGRTYYADSVKGRFPISRVNAKNTVYLQMNSLKPEDTAVYYCATYTWWGQGTQVTVSS | high polyreactivity
30 | QVQLVESGGGLVQAGGSLRLSCAASGFTFRYYAMGWSRQAPGKERELLAAITGRGGSTYYADSVKGRFTISRDNAKNTVYFQMNSLNPEDTAVSFCAARFTRVYAQVRNDYWGQGTQVTVSS | high polyreactivity
31 | QVQLVESGGGLVQAGGSLRLSCAASGFTFVPYAMGWYRLAPGKEREFVATISWSAGRTYYADSVKGRFTISRDNAKNTVYLQMNSLKPEDTAVYYCNTASYRGYDYWGQGTQVTVSS | high polyreactivity
32 | QVQLVESGAGLVQAGGSLRLSCAASGRTFTSNSMGLYIQAPGKERELVASISFRGGRTYYADSVKVRFTISRDNAKNTVYLQMNSLKPEDTAVYYCVSGTKRTGYGYWGQGTLVTVSS | high polyreactivity
33 | QVQLVESGGGIVQACGSLRLSCAASGFTFYVYAMGWYRKAPGKEREFVAAISKSGGRTYYADSVMGRFTISRDNAKNTVYLQMNSLKPEDTAVYYCGRYNRYQIIYPGFDYWGQGTQVTVSS | high polyreactivity
34 | QVQLVESGGGLVQAGGSLRLSCAASGRILWTYAMGWYRQAPGKERELVADISRTGSTNYADSVKGRFTISRDNAKNTVYLQMNSLKPEDTAVYYCNADYDRSRVYYSVELYDYWGQGTQVTVSS | low polyreactivity
35 | PVQLVESGGGLVQAGGTLRLSCDATGITFKLNAMGWYRQAPGKERELVAAITSTGGSTYYADSVKGRFTISRDNAKNTVYLQMNSLNPEDTAVYYCAADRYSYIFYYYWSYDYWGQCTQVTVSS | high polyreactivity
36 | QVQLVESGGGLVQAGGSLRLSCAASGFIFRYNAMGWNRQAPGKERELVARINSGVSTNYADSVKGRFTISRDNAKNTVYLQMNSLKPEDTAVYYCNARVRRGYSRFDYWGQGTQVTVSS | high polyreactivity
37 | QVQLVESGGGLVQAGGSLRLSCAASGRIFWRNALGWYRQAPGKERELVAAITYSGGSTYYADSVKGRFTISRDNAKNTVYVQMNSLNPEDTAVYYCNTVEGWRYYGQSLYAYYYWGQGTQVTVSS | high polyreactivity
38 | QVQLVESGGCLVQAGGSLRLSCAASGSTFGVNAMGWYRKAPGKERELVADISVRTDSTYYADSVKGRFTISRDNAKNTVYLQMNSLKAEDTAVYDCNAGLVIEYDYWGQGTQVSVSS | low polyreactivity
39 | QVQLVESGGGLVQAGGSLRLSCAASGRTFCTNAMGWYRQAPGTERELVAVISGSTGSTYYADSVKGRFTISRDNAKNTVYLQMNSLKPEDTAVYYCAASYRNTGRWSYRGDYWGQGTQVTVSS | high polyreactivity
40 | QVQLVESGGGLVQAGGILRISCAASGRTSYWYAMAWYRQAPGKERELVADISWSGGSTYYADSVKGRFTISRDNAKNTVYLQMNSLNPEDTAVYYCIGAEQKYSIYYAFDTGPYDYWGQGTQVTVSS | low polyreactivity
41 | QVQLVESGGGLVQAGGSLRLSCVASGSISQTYAMGWYRQAPGKERELVAAISSSGASTYYADSVKGRFTISRDNAKNTVYLQMNSLKPEDTAVYYCNADKFRRYGYWGQGTQVTVSS | high polyreactivity

Reference: the nanobody polyreactivity screen of Harvey et al. (2022)
